Measured values from paper PMC5308735, “Inhibition of insulin-like growth factor II (IGF-II)-dependent cell growth by multidentate pentamannosyl 6-phosphate-based ligands targeting the mannose 6-phosphate/IGF-II receptor” (Oncotarget, 2016).
Values belong to the molecule of their own block, whether it stands above or below them.

Columns and labels:
[1] = target: soluble bovine M6P/IGF2R (mannose 6-phosphate/insulin-like growth factor II receptor) (bovine) (UniProt P08169); assay: radioligand binding; competitive displacement of 1.5 nM ^125I-PMP-BSA tracer from soluble bovine M6P/IGF2R coupled to Sepharose 4B; test ligands 1 pM to 10 μM; 50 mM HEPES pH 7.4, 0.15 M NaCl, 0.05% Triton X-100; 16 h at 4°C
Chain of soluble bovine M6P/IGF2R (mannose 6-phosphate/insulin-like growth factor II receptor) (bovine) (P08169 45-2313): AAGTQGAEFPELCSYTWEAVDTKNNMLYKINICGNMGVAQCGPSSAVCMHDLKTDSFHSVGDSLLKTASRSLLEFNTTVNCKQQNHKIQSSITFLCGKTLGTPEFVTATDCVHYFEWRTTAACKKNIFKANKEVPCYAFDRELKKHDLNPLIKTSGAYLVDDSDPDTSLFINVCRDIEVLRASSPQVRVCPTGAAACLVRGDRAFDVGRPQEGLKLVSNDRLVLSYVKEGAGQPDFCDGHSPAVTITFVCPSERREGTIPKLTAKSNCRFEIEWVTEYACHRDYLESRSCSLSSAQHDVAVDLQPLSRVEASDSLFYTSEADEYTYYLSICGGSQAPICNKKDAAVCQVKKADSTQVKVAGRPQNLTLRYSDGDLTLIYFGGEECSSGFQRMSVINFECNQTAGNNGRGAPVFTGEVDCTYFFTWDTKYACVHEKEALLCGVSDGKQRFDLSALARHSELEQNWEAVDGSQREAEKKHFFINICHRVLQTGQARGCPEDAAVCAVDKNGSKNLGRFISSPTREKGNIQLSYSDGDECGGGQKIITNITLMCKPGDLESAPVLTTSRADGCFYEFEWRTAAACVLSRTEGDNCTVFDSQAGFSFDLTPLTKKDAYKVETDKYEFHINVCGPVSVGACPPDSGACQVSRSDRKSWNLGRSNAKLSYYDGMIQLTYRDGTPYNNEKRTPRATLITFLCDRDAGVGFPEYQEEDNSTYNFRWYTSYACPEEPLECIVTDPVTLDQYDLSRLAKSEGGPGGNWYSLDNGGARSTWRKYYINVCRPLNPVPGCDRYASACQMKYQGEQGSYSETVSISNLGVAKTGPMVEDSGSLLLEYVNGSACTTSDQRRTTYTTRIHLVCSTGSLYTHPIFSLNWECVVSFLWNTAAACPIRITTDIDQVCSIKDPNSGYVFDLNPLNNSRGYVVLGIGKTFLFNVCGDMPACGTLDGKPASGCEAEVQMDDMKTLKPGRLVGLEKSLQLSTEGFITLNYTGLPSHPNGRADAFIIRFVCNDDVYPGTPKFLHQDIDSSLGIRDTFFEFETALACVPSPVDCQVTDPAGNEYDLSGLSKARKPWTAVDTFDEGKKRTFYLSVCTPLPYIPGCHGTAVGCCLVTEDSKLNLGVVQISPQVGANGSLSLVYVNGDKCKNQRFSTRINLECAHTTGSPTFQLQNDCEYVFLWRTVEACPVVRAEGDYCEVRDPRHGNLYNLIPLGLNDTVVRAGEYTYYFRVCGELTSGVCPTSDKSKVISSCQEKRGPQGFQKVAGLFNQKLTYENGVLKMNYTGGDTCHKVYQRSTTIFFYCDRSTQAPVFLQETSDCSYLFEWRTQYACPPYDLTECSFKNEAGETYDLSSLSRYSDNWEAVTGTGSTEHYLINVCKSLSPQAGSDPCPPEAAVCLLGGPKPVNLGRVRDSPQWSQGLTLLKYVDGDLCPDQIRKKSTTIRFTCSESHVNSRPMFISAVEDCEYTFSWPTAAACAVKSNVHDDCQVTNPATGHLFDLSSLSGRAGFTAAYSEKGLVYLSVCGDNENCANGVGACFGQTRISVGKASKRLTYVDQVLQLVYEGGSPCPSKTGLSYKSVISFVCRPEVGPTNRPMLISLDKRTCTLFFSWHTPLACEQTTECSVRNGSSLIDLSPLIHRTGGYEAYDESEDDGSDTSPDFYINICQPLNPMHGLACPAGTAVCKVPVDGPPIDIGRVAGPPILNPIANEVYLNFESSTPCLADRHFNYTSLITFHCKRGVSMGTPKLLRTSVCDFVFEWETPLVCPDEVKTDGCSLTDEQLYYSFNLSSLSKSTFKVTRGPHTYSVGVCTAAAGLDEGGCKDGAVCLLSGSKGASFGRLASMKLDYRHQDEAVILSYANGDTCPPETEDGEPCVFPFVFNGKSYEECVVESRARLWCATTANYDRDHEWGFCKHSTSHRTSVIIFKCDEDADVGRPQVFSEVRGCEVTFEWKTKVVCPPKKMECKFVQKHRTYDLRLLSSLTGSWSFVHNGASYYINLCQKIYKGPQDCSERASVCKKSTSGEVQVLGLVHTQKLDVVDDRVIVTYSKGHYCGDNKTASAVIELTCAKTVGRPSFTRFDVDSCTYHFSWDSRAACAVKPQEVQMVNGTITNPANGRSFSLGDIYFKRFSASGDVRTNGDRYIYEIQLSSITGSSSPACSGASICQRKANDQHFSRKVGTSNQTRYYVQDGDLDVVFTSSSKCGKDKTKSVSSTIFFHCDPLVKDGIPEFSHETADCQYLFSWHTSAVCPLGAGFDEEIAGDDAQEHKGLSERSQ

[2] = target: soluble bovine M6P/IGF2R (mannose 6-phosphate/insulin-like growth factor II receptor) (bovine) (UniProt P08169)
[3] = target: recombinant human insulin-like growth factor II (IGF-II); assay: direct radioligand binding (125I-IGF-II) to FLAG-tagged receptor immunoprecipitated on M2 α-FLAG affinity resin; details: equimolar amounts of expressed soluble receptors from cell lysates; parent: est. 5800; read off a plot
[4] = target: T1, full-length ectodomain M6P/IGF2R mini-receptor with R1325A (repeat 9), C-terminal FLAG (human, UniProt P11717 41-2304, R1325A); assay: radioligand binding; competitive displacement of 2 nM ^125I-PMP-BSA from FLAG-tagged soluble receptors immunoprecipitated on M2 α-FLAG resin and washed; PMP-ligands 1 pM to 10 μM; assay buffer, 4 h at 4°C; details: both partners purified
T1 construct: human M6P/IGF2R, all 15 ectodomain repeats, arginine-to-alanine substitution in the 9th domain; also called R1325AF; source: HEK 293, transiently transfected; cell lysates and conditioned media, immunoadsorbed to M2 α-FLAG resin; not shown: FLAG, C-terminal, kept

[5] = target: T2, wild-type, full-length ectodomain M6P/IGF2R mini-receptor with C-terminal FLAG (1-15F) (human, UniProt P11717 41-2304); assay: as above; details: both partners purified
T2 construct: human M6P/IGF2R, all 15 ectodomain repeats; also called wild-type M6P/IGF2R construct; source: HEK 293, transiently transfected; cell lysates and conditioned media, immunoadsorbed to M2 α-FLAG resin; not shown: FLAG, C-terminal, kept

[6] = target: T3, soluble bovine M6P/IGF2R (mannose 6-phosphate/insulin-like growth factor II receptor) (bovine, UniProt P08169 45-2313); assay: radioligand binding; competitive displacement of 1.5 nM ^125I-PMP-BSA tracer from soluble bovine M6P/IGF2R coupled to Sepharose 4B; test ligands 1 pM to 10 μM; 50 mM HEPES pH 7.4, 0.15 M NaCl, 0.05% Triton X-100; 16 h at 4°C; details: both partners purified
T3 construct: soluble form of the bovine mannose 6-phosphate/IGF-II receptor as it circulates in fetal bovine serum; also called sIGF2R; soluble M6P/IGF2R; source: purified from fetal bovine serum; coupled to Sepharose 4B for the displacement assay
T3 sequence (P08169 45-2313): as above

[7] = target: T4, full-length ectodomain M6P/IGF2R mini-receptor with R426A (repeat 3), C-terminal FLAG (human, UniProt P11717 41-2304, R426A); assay: radioligand binding; direct binding of ^125I-PMP-BSA or ^125I-hGUS to equimolar FLAG-tagged soluble receptors immunoadsorbed from HEK 293 lysates/conditioned media to M2 α-FLAG resin and washed; details: both partners purified
T4 construct: human M6P/IGF2R, all 15 ectodomain repeats, arginine-to-alanine substitution in the 3rd domain; also called R426A mutant construct; source: HEK 293, transiently transfected; cell lysates and conditioned media, immunoadsorbed to M2 α-FLAG resin; not shown: FLAG, C-terminal, kept

[8] = target: T1, full-length ectodomain M6P/IGF2R …; assay: as above; details: both partners purified
[9] = target: T2, wild-type, full-length ectodomain …; assay: as above; details: both partners purified

Molecule: pentamannosyl 6-phosphate-derivatized bovine insulin (PMP-INS) (ligand)
IC50 [1]: 13 nM
RBA (relative binding affinity, normalized to free M6P) [1]: 5540

Molecule: pentamannosyl 6-phosphate-derivatized seryl-tyrosyl-lysine (PMP-SYK) (peptide)
IC50 [1]: 52 nM
RBA (relative binding affinity, normalized to free M6P) [1]: 1380
suppression of growth (MTT, 2 days) of mouse L cells over-expressing the M6P/IGF2R, PMP-SYK 1 pM to 1 μM; blocked by saturating M6P [2]: 50%

Molecule: wild-type, full-length ectodomain M6P/IGF2R mini-receptor with C-terminal FLAG (1-15F) (from UniProt P11717) R426A
response [3]: 5300 CPM

Molecule: pentamannosyl 6-phosphate-derivatized lysyl-tyrosyl-lysine (PMP-KYK) (peptide)
IC50 [1]: 120 nM
RBA (relative binding affinity, normalized to free M6P) [1]: 600

Molecule: wild-type, full-length ectodomain M6P/IGF2R mini-receptor with C-terminal FLAG (1-15F) (from UniProt P11717) R426A; R1325A
response [3]: 5900 CPM

The remaining lines, values ahead:

response [3]: 5000 CPM
Molecule: wild-type, full-length ectodomain M6P/IGF2R mini-receptor with C-terminal FLAG (1-15F) (from UniProt P11717) R1325A

binding result [4]: binds
binding result [5]: binds
IC50 [6]: 21 nM
B1: pentamannosyl 6-phosphate-derivatized chicken egg ovalbumin (PMP-OVA) (ligand, UniProt P01012 1-386, looked up)
chain: MGSIGAASMEFCFDVFKELKVHHANENIFYCPIAIMSALAMVYLGAKDSTRTQINKVVRFDKLPGFGDSIEAQCGTSVNVHSSLRDILNQITKPNDVYSFSLASRLYAEERYPILPEYLQCVKELYRGGLEPINFQTAADQARELINSWVESQTNGIIRNVLQPSSVDSQTAMVLVNAIVFKGLWEKAFKDEDTQAMPFRVTEQESKPVQMMYQIGLFRVASMASEKMKILELPFASGTMSMLVLLPDEVSGLEQLESIINFEKLTEWTSSNVMEERKIKVYLPRMKMEEKYNLTSVLMAMGITDVFSSSANLSGISSAESLKISQAVHAAHAEINEAGREVVGSAEAGVDAASVSEEFRADHPFLFCIKHIATNAVLFFGRCVSP
modifications: pentamannosyl 6-phosphate (PMP) coupled by reductive amination, approximately 13 PMP groups
notes: chicken egg white albumin (ovalbumin); source: bought: Sigma (A-5503), conjugated to PMP with NaCNBH3, dialysed and gel filtered (Sephadex G-50)

binding result [7]: binds
binding result [8]: binds
binding result [9]: binds
B2: human β-glucuronidase (hGUS) (enzyme, UniProt P08236 23-651, looked up)
chain: LQGGMLYPQESPSRECKELDGLWSFRADFSDNRRRGFEEQWYRRPLWESGPTVDMPVPSSFNDISQDWRLRHFVGWVWYEREVILPERWTQDLRTRVVLRIGSAHSYAIVWVNGVDTLEHEGGYLPFEADISNLVQVGPLPSRLRITIAINNTLTPTTLPPGTIQYLTDTSKYPKGYFVQNTYFDFFNYAGLQRSVLLYTTPTTYIDDITVTTSVEQDSGLVNYQISVKGSNLFKLEVRLLDAENKVVANGTGTQGQLKVPGVSLWWPYLMHERPAYLYSLEVQLTAQTSLGPVSDFYTLPVGIRTVAVTKSQFLINGKPFYFHGVNKHEDADIRGKGFDWPLLVKDFNLLRWLGANAFRTSHYPYAEEVMQMCDRYGIVVIDECPGVGLALPQFFNNVSLHHHMQVMEEVVRRDKNHPAVVMWSVANEPASHLESAGYYLKMVIAHTKSLDPSRPVTFVSNSNYAADKGAPYVDVICLNSYYSWYHDYGHLELIQLQLATQFENWYKKYQKPIIQSEYGAETIAGFHQDPPLMFTEEYQKSLLEQYHLGLDQKRRKYVVGELIWNFADFMTEQSPTRVLGNKKGIFTRQRQPKSAAFLLRERYWKIANETRYPHSVAKSQCLENSLFT
modifications: multiple high-mannose N-linked oligosaccharides capped with M6P; ^125I-labelled (IODOGEN) where used as tracer
notes: human β-glucuronidase, a homotetrameric lysosomal enzyme; source: purified human β-glucuronidase provided by Dr. William S. Sly
